According to patent publication US20130035289A1, “PHARMACEUTICAL COMPOSITION FOR TREATMENT OF THROMBOSIS-RELATED DISEASES COMPRISING A FRAGMENT OF PROLACTIN (PRL)-GROWTH HORMONE (GH)-PLACENTAL LACTOGEN (PL)-FAMILY PROTEIN” (UNIVERSITE DE LIEGE, priority 2010, published 2013):

Columns and labels:
PAI-1 = biological target: T1, PAI-1 (Mus musculus, UniProt P22777); test: Murine thromboembolism model (tPA/thromboplastin); assay type: in vivo; details: recombinant 16K PRL 1 mg/kg i.v. 5 min before t-PA/thromboplastin; survival at 15 min; control group 73%; p=0.003
T1 construct: from tissue; host or cells: BalbC Njrj mice, in vivo (blood)
T1 sequence (P22777 23-402): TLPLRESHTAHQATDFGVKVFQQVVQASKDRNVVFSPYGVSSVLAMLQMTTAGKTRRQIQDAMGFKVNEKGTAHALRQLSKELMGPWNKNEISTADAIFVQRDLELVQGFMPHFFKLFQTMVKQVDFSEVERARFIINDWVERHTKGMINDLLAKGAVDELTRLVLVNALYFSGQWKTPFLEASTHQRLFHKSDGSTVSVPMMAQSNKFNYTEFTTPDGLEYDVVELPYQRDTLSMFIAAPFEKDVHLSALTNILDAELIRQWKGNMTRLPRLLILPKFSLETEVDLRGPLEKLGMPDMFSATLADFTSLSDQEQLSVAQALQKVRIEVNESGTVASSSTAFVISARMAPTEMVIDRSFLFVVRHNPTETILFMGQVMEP
Experimental: BalbC Njrj Mice were used and anesthetised with ketamine/xylazine throughout the whole experiment. Recombinant 16K PRL and adenovirus vectors 16K-Ad and Null-Ad were produced as described above. The animal experiment protocol used was approved by the Institutional Ethics Committee of the University of Liege.
Recombinant 16K PRL (1 mg/kg) or POPRL 7-12 (10 mg/kg) were administrated via the vein to BalbC Njrj mice of approximately 15-18 g. Five minutes after the injection, a suboptimal concentration of t-PA (0.1 mg/kg) was injected immediately followed by i.v. injection of thromboplastin (3.3 μg/kg) to evoke thromboembolism. Mice were evaluated after 15 min for survival. For experiment with adenovirus vectors, mice were injected into the tail vein with 10^9 pfu of 16K hPRL adenovirus (16K-Ad) and their corresponding control (Null-Ad) 5 days before the injection a suboptimal concentration of t-PA (0.1 mg/kg) injected immediately followed by i.v. injection of thromboplastin (3.3 μg/kg).
The fisher test was used to determine the significance of the differences in the mortality assays.

NF-κB = NF-κB p65 DNA-binding activity in HUVECs; assay type: cell-based, human; details: 16K PRL 50 nM 1 h
Experimental: HUVECs were incubated for 2 h with 16K PRL and immunostained for uPA (red) or 16K PRL (green) and nuclei (DAPI, blue). Bottom panels: co-localization of PAI-1 and 16K PRL. To visualize added PAI-1 and not endogenous PAI-1, cells were incubated with His-tag PAI-1 and 16K PRL and stained for PAI-1 (red), 16K PRL (green), and nuclei (DAPI, blue). (B) Schematic outline of the proximity ligation assay (PLA) strategy showing primary antibody from different species for uPA and 16K PRL. Juxtaposition of secondary, oligonucleotide ligated antibodies allows a rolling circle amplification detected by a cy3-probe. (C) Detection of uPA/16K PRL complexes (red spots) on HUVECs by PLA. […]
HUVECs were pre-treated with a blocking uPAR Ab 3 μg/ml (R&D system) or control IgG (SantaCruz) for 1 h and then incubated for 1 h with 16K PRL (50 nM). The p65 DNA-binding activity of NF-κB was quantified by ELISA (EZ Transcription Factor kit NF-κB p65 (Pierce)) according to the manufacturer's instructions on total protein extracts. Protein concentrations were determined by the […] using the BCA protein assay reagent (Pierce). NF-κB binding to the target oligonucleotide was detected by incubation with primary antibody specific for the activated form of p65, visualized by anti-IgG horseradish peroxidase conjugate and developing solution. Chemiluminescence was quantified with a luminometer.

B1: 16K hPRL: 16K N-terminal human prolactin fragment, recombinant, produced and purified from E. coli (protein)
chain: LPICPGGAARCQVTLRDLFDRAVVLSHYIHNLSSEMFSEFDKRYTHGRGFITKAINSCHTSSLATPEDKEQAQQMNQKDFLSLIVSILRSWNEPLYHLVTEVRGMQEAPEAILSKAVEIEEQTKRLLEGMELIVSQVHP
mortality (PAI-1): 32%
16K PRL-induced NF-κB signaling (NF-κB; blocking uPAR antibody pre-treatment 1 h): disrupts
16K PRL response (NF-κB activity), requirement of uPA (NF-κB; pre-treatment with ATF of uPA): required
